How the values were obtained:
HeLa Kyoto [1] = test: solubility in G1/S (NP-40 vs SDS abundance) (log2 ratio); higher = more soluble; conditions: cell cycle stage: G1/S
HeLa Kyoto [2] = test: thermal stability score vs G1/S (z-score of summed log2 fold changes over temperatures); higher = more thermally stable than in G1/S
HeLa Kyoto [3] = test: solubility change mitosis vs G1/S (difference of NP-40 vs SDS log2 ratios) (log2 ratio difference); higher = more soluble in mitosis
HeLa Kyoto [4] = test: melting temperature (median over replicates), in situ; higher = more thermally stable
[5] = cell cycle stage: early G1 (4.5 h after nocodazole release)
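For melting temperature (median over replicates), in situ in this document: HeLa Kyoto cells synchronized by double thymidine or nocodazole block, proteins quantified by TMT10plex mass spectrometry, three independent biological replicates.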
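For solubility change mitosis vs G1/S (difference of NP-40 vs SDS log2 ratios) in this document: synchronized HeLa Kyoto cells (double thymidine block for G1/S, nocodazole release for mitosis), protein amounts in NP-40 versus SDS lysates quantified by mass spectrometry, three biological replicates.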
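For solubility in G1/S (NP-40 vs SDS abundance) in this document: HeLa Kyoto cells arrested at G1/S by double thymidine block, proteins quantified by TMT10plex mass spectrometry in mild NP-40 versus SDS extracts, three biological replicates.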
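For thermal stability score vs G1/S (z-score of summed log2 fold changes over temperatures) in this document: synchronized HeLa Kyoto cells, proteins quantified by TMT10plex mass spectrometry, three biological replicates, mitosis taken 0.5 h after nocodazole release, G1/S directly after double thymidine block.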

Chain of RHOC (chain, as listed by the source): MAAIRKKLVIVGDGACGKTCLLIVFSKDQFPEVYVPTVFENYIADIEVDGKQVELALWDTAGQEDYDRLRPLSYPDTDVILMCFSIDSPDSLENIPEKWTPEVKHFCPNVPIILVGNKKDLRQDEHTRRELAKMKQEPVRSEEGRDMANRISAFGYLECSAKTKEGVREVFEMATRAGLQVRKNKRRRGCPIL

MASGSGDSVTRRSVASQFFTQEEGPGIDGMTTSERVVDLLNQAALITNDSKITVLKQVQELIINKDPTLLDNFLDEIIAFQADKSIEVRKFVIGFIEEACKRDIELLLKLIANLNMLLRDENVNVVKKAILTMTQLYKVALQWMVKSRVISELQEACWDMVSAMAGDIILLLDSDNDGIRTHAIKFVEGLIVTLSPRMADSEIPRRQEHDISLDRIPRDHPYIQYNVLWEEGKAALEQLLKFMVHPAISSINLTTALGSLANIARQRPMFMSEVIQAYETLHANLPPTLAKSQVSSVRKNLKLHLLSVLKHPASLEFQAQITTLLVDLGTPQAEIARNMPSSKDTRKRPRDDSDSTLKKMKLEPNLGEDDEDKDLEPGPSGTSKASAQISGQSDTDITAEFLQPLLTPDNVANLVLISMVYLPEAMPASFQAIYTPVESAGTEAQIKHLARLMATQMTAAGLGPGVEQTKQCKEEPKEEKVVKTESVLIKRRLSAQGQAISVVGSLSSMSPLEEEAPQAKRRPEPIIPVTQPRLAGAGGRKKIFRLSDVLKPLTDAQVEAMKLGAVKRILRAEKAVACSGAAQVRIKILASLVTQFNSGLKAEVLSFILEDVRARLDLAFAWLYQEYNAYLAAGASGSLDKYEDCLIRLLSGLQEKPDQKDGIFTKVVLEAPLITESALEVVRKYCEDESRTYLGMSTLRDLIFKRPSRQFQYLHVLLDLSSHEKDKVRSQALLFIKRMYEKEQLREYVEKFALNYLQLLVHPNPPSVLFGADKDTEVAAPWTEETVKQCLYLYLALLPQNHKLIHELAAVYTEAIADIKRTVLRVIEQPIRGMGMNSPELLLLVENCPKGAETLVTRCLHSLTDKVPPSPELVKRVRDLYHKRLPDVRFLIPVLNGLEKKEVIQALPKLIKLNPIVVKEVFNRLLGTQHGEGNSALSPLNPGELLIALHNIDSVKCDMKSIIKATNLCFAERNVYTSEVLAVVMQQLMEQSPLPMLLMRTVIQSLTMYPRLGGFVMNILSRLIMKQVWKYPKVWEGFIKCCQRTKPQSFQVILQLPPQQLGAVFDKCPELREPLLAHVRSFTPHQQAHIPNSIMTILEASGKQEPEAKEAPAGPLEEDDLEPLTLAPAPAPRPPQDLIGLRLAQEKALKRQLEEEQKLKPGGVGAPSSSSPSPSPSARPGPPPSEEAMDFREEGPECETPGIFISMDDDSGLTEAALLDSSLEGPLPKETAAGGLTLKEERSPQTLAPVGEDAMKTPSPAAEDAREPEAKGNS [SYMPK]
solubility in G1/S (log2) (HeLa Kyoto [1]): 0.0291
thermal stability score (HeLa Kyoto [2]; [5]): 1.75
thermal stability score (HeLa Kyoto [2]; cell cycle stage: mitosis): 4.2
solubility change mitosis (log2) (HeLa Kyoto [3]): -0.0648
melting temperature (HeLa Kyoto [4]; cell cycle stage: G1/S): 48.1 °C
melting temperature (HeLa Kyoto [4]; cell cycle stage: mitosis): 49.1 °C

MATHGQTCARPMCIPPSYADLGKAARDIFNKGFGFGLVKLDVKTKSCSGVEFSTSGSSNTDTGKVTGTLETKYKWCEYGLTFTEKWNTDNTLGTEIAIEDQICQGLKLTFDTTFSPNTGKKSGKIKSSYKRECINLGCDVDFDFAGPAIHGSAVFGYEGWLAGYQMTFDSAKSKLTRNNFAVGYRTGDFQLHTNVNDGTEFGGSIYQKVCEDLDTSVNLAWTSGTNCTRFGIAAKYQLDPTASISAKVNNSSLIGVGYTQTLRPGVKLTLSALVDGKSINAGGHKVGLALELEA [VDAC2]
solubility in G1/S (log2) (HeLa Kyoto [1]): -0.125
thermal stability score (HeLa Kyoto [2]; [5]): -1.16
thermal stability score (HeLa Kyoto [2]; cell cycle stage: mitosis): -4.22
solubility change mitosis (log2) (HeLa Kyoto [3]): -0.0952
melting temperature (HeLa Kyoto [4]; cell cycle stage: G1/S): 59.9 °C
melting temperature (HeLa Kyoto [4]; cell cycle stage: mitosis): 60.3 °C

MGLTKQYLRYVASAVFGVIGSQKGNIVFVTLRGEKGRYVAVPACEHVFIWDLRKGEKILILQGLKQEVTCLCPSPDGLHLAVGYEDGSIRIFSLLSGEGNVTFNGHKAAITTLKYDQLGGRLASGSKDTDIIVWDVINESGLYRLKGHKDAITQALFLREKNLLVTSGKDTMVKWWDLDTQHCFKTMVGHRTEVWGLVLLSEEKRLITGASDSELRVWDIAYLQEIEDPEEPDPKKIKGSSPGIQDTLEAEDGAFETDEAPEDRILSCRKAGSIMREGRDRVVNLAVDKTGRILACHGTDSVLELFCILSKKEIQKKMDKKMKKARKKAKLHSSKGEEEDPEVNVEMSLQDEIQRVTNIKTSAKIKSFDLIHSPHGELKAVFLLQNNLVELYSLNPSLPTPQPVRTSRITIGGHRSDVRTLSFSSDNIAVLSAAADSIKIWNRSTLQCIRTMTCEYALCSFFVPGDRQVVIGTKTGKLQLYDLASGNLLETIDAHDGALWSMSLSPDQRGFVTGGADKSVKFWDFELVKDENSTQKRLSVKQTRTLQLDEDVLCVSYSPNQKLLAVSLLDCTVKIFYVDTLKFFLSLYGHKLPVICMDISHDGALIATGSADRNVKIWGLDFGDCHKSLFAHDDSVMYLQFVPKSHLFFTAGKDHKIKQWDADKFEHIQTLEGHHQEIWCLAVSPSGDYVVSSSHDKSLRLWERTREPLILEEEREMEREAEYEESVAKEDQPAVPGETQGDSYFTGKKTIETVKAAERIMEAIELYREETAKMKEHKAICKAAGKEVPLPSNPILMAYGSISPSAYVLEIFKGIKSSELEESLLVLPFSYVPDILKLFNEFIQLGSDVELICRCLFFLLRIHFGQITSNQMLVPVIEKLRETTISKVSQVRDVIGFNMAGLDYLKRECEAKSEVMFFADATSHLEEKKRKRKKREKLILTLT [WDR3]
solubility in G1/S (log2) (HeLa Kyoto [1]): -1.64
thermal stability score (HeLa Kyoto [2]; [5]): 2.25
thermal stability score (HeLa Kyoto [2]; cell cycle stage: mitosis): 3.44
solubility change mitosis (log2) (HeLa Kyoto [3]): 0.614
melting temperature (HeLa Kyoto [4]; cell cycle stage: G1/S): 50.2 °C
melting temperature (HeLa Kyoto [4]; cell cycle stage: mitosis): 50.9 °C

MAPLDLDKYVEIARLCKYLPENDLKRLCDYVCDLLLEESNVQPVSTPVTVCGDIHGQFYDLCELFRTGGQVPDTNYIFMGDFVDRGYYSLETFTYLLALKAKWPDRITLLRGNHESRQITQVYGFYDECQTKYGNANAWRYCTKVFDMLTVAALIDEQILCVHGGLSPDIKTLDQIRTIERNQEIPHKGAFCDLVWSDPEDVDTWAISPRGAGWLFGAKVTNEFVHINNLKLICRAHQLVHEGYKFMFDEKLVTVWSAPNYCYRCGNIASIMVFKDVNTREPKLFRAVPDSERVIPPRTTTPYFL [PPP6C]
solubility in G1/S (log2) (HeLa Kyoto [1]): -0.00442
thermal stability score (HeLa Kyoto [2]; [5]): -1.68
thermal stability score (HeLa Kyoto [2]; cell cycle stage: mitosis): -2.31
solubility change mitosis (log2) (HeLa Kyoto [3]): -0.154
melting temperature (HeLa Kyoto [4]; cell cycle stage: G1/S): 53.7 °C
melting temperature (HeLa Kyoto [4]; cell cycle stage: mitosis): 54.1 °C

RHOC
solubility in G1/S (log2) (HeLa Kyoto [1]): 0.0468
thermal stability score (HeLa Kyoto [2]; [5]): -0.123
thermal stability score (HeLa Kyoto [2]; cell cycle stage: mitosis): -1.75
solubility change mitosis (log2) (HeLa Kyoto [3]): -0.013
melting temperature (HeLa Kyoto [4]; cell cycle stage: G1/S): 53.8 °C
melting temperature (HeLa Kyoto [4]; cell cycle stage: mitosis): 54.8 °C

MAALGVAEAVAAPHPAEGAETAEAVELSRALSRLLPGLEADSKPGRRRALEALRRALEEPGPAADPTAFQGPWARLLLPRLLRCLSDPAEGCRALAVHLLDLGLRRAARPRDALPRLLPALAARLAGPVPARRPPEACEELRLALVQLLGLAVDLCGAALAPHLDDALRALRCSLLDPFAAVRRESCSCAAALAQATPDHFHMQSESLIGPLMQTISHQHWKVRVAAIEATGAVIHFGNGKSVDDVLSHFAQRLFDDVPQVRRAVASVVGGWLLCLRDRYSFFHKLIPLLLSSLNDEVPEVRQLAASLWEDVGLQWQKENEEDLKDKLDFAPPTPPHYPPHERRPVLGCRELVFRNLSKILPALCHDITDWVVGTRVKSAQLLPVLLLHAEDHATQHLEVVLRTLFQACTDEEAAVVQSCTRSAELVGTFVSPEVFLKLILSTLKKTPSASGLLVLASAMRGCPREALQPHLAAIATELAQAHICQASENDLYLERLLLCVQALVSVCHEDCGVASLQLLDVLLTIVALAGATGLRDKAQETMDSLAMVEGVSSCQDLYRKHIGPLLERVTASHLDWTAHSPELLQFSVIVAQSGPALGEALPHVVPTLRACLQPSQDPQMRLKLFSILSTVLLRATDTINSQGQFPSYLETVTKDILAPNLQWHAGRTAAAIRTAAVSCLWALTSSEVLSAEQIRDVQETLMPQVLTTLEEDSKMTRLISCRIINTFLKTSGGMTDPEKLIRIYPELLKRLDDVSNDVRMAAASTLVTWLQCVKGANAKSYYQSSVQYLYRELLVHLDDPERAIQDAILEVLKEGSGLFPDLLVRETEAVIHKHRSATYCEQLLQHVQAVPATQ [DNAAF5]
solubility in G1/S (log2) (HeLa Kyoto [1]): 0.0447
thermal stability score (HeLa Kyoto [2]; [5]): 0.695
thermal stability score (HeLa Kyoto [2]; cell cycle stage: mitosis): 2.82
solubility change mitosis (log2) (HeLa Kyoto [3]): -0.172
melting temperature (HeLa Kyoto [4]; cell cycle stage: G1/S): 48.1 °C
melting temperature (HeLa Kyoto [4]; cell cycle stage: mitosis): 48 °C

MLSESSSFLKGVMLGSIFCALITMLGHIRIGHGNRMHHHEHHHLQAPNKEDILKISEDERMELSKSFRVYCIILVKPKDVSLWAAVKETWTKHCDKAEFFSSENVKVFESINMDTNDMWLMMRKAYKYAFDKYRDQYNWFFLARPTTFAIIENLKYFLLKKDPSQPFYLGHTIKSGDLEYVGMEGGIVLSVESMKRLNSLLNIPEKCPEQGGMIWKISEDKQLAVCLKYAGVFAENAEDADGKDVFNTKSVGLSIKEAMTYHPNQVVEGCCSDMAVTFNGLTPNQMHVMMYGVYRLRAFGHIFNDALVFLPPNGSDND [C1GALT1C1]
solubility in G1/S (log2) (HeLa Kyoto [1]): 0.0342
thermal stability score (HeLa Kyoto [2]; [5]): -0.0972
thermal stability score (HeLa Kyoto [2]; cell cycle stage: mitosis): -0.609
solubility change mitosis (log2) (HeLa Kyoto [3]): -0.0947
melting temperature (HeLa Kyoto [4]; cell cycle stage: G1/S): 53.9 °C
melting temperature (HeLa Kyoto [4]; cell cycle stage: mitosis): 53.4 °C
